According to the supplement of paper PMC10724198:
± gives the standard deviation of the averaged measurements.

Tested on: Saccharomyces cerevisiae
Test: protein stability index of tFT-peptide fusion (C-terminal peptide) (PSI (0-1 scale)); higher = more stable (slower turnover)
Conditions: temperature: 30 C
Method: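 MPS profiling in S. cerevisiae of the yeast C-terminome library: the last 12 aa of each annotated ORF are fused to the C-terminus of a sfGFP-mCherry timer, after a GGGS linker. Cells are FACS-sorted into 8 mCherry/sfGFP bins and deep-sequenced. PSI runs from 0 (unstable) to 1 (stable); wild type and das1Δ backgrounds, two technical replicates each.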

[1] = genetic background: das1 deletion

Row | Sequence | protein stability index [1] | protein stability index (genetic background: wild type)
1 | SLFPRDPKRLRP [DPS1 C-terminal 12 aa] | 0.7133 ± 0.0054 | 0.6987 ± 0.0031
2 | SLIKQVGVKLDR [JHD2 C-terminal 12 aa] | 0.671 ± 0.025 | 0.67 ± 0.013
3 | SLPLVSLFIVLA [YJL064W C-terminal 12 aa] | 0.267 ± 0.019 | 0.268 ± 0.0062
4 | SLYTLNYNVKNP [ATG17 C-terminal 12 aa] | 0.7157 ± 0.0035 | 0.6907 ± 0.00092
5 | SMHAFLCKIYKR [YCR095W-A C-terminal 12 aa] | 0.701 ± 0.02 | 0.6761 ± 0.0035
6 | SMPLYKDVQKDA [RBK1 C-terminal 12 aa] | 0.717 ± 0.027 | 0.665 ± 0.015
7 | SMTTTNFSDFSL [UPC2 C-terminal 12 aa] | 0.6932 ± 0.0047 | 0.688 ± 0.036
8 | SNDDFRKMFLGE [PRP24 C-terminal 12 aa] | 0.725 ± 0.011 | 0.708 ± 0.01
9 | SNSNQHFGNVTF [IME2 C-terminal 12 aa] | 0.713 ± 0.0014 | 0.6829 ± 0.0059
10 | SPAHSFEKIQKI [ERF2 C-terminal 12 aa] | 0.692 ± 0.015 | 0.688 ± 0.029
11 | SPYDWFRNTETP [DER1 C-terminal 12 aa] | 0.726 ± 0.035 | 0.737 ± 0.0089
12 | SQVLPESERRLD [ATG22 C-terminal 12 aa] | 0.675 ± 0.013 | 0.676 ± 0.03
13 | SRIQNASASGEI [TIM13 C-terminal 12 aa] | 0.685 ± 0.015 | 0.715 ± 0.015
14 | SRSNSHRTFFKR [FPK1 C-terminal 12 aa] | 0.737 ± 0.053 | 0.714 ± 0.043
15 | SSLSFLSSFVDI [VAM10 C-terminal 12 aa] | 0.708 ± 0.025 | 0.702 ± 0.048
16 | SSSGTSSSHLEL [APL6 C-terminal 12 aa] | 0.702 ± 0.0062 | 0.672 ± 0.028
17 | SSSLSLESFMKS [SNM1 C-terminal 12 aa] | 0.748 ± 0.036 | 0.725 ± 0.019
18 | SSTVESTNINME [MRT4 C-terminal 12 aa] | 0.6903 ± 0.0023 | 0.721 ± 0.00096
19 | SSVAFSKNLECV [YGR139W C-terminal 12 aa] | 0.7073 ± 0.0066 | 0.696 ± 0.038
20 | SSYFRIEGKKKK [CUE2 C-terminal 12 aa] | 0.68 ± 0.022 | 0.683 ± 0.024
21 | STSDFELDDLED [YPL264C C-terminal 12 aa] | 0.6965 ± 0.0052 | 0.729 ± 0.026

Row | Sequence | protein stability index [1] | protein stability index (genetic background: wild type)
22 | STTKQQSQEAVA [YHL026C C-terminal 12 aa] | 0.704 ± 0.027 | 0.689 ± 0.054
23 | SVEEAFQLKSFD [LAA1 C-terminal 12 aa] | 0.713 ± 0.0014 | 0.715 ± 0.056
24 | SVFCRNYPSFLL [YMR086C-A C-terminal 12 aa] | 0.697 ± 0.011 | 0.7 ± 0.035
25 | SVLQRRQSTQNS [HAL1 C-terminal 12 aa] | 0.719 ± 0.0076 | 0.691 ± 0.06
26 | SVSVQVKWLYSA [YER107W-A C-terminal 12 aa] | 0.657 ± 0.012 | 0.159 ± 0.017
27 | SVTSGSANFVFY [UTH1 C-terminal 12 aa] | 0.7081 ± 0.0034 | 0.7 ± 0.019
28 | SYKWLKRETSPL [FRA1 C-terminal 12 aa] | 0.712 ± 0.024 | 0.689 ± 0.022
29 | TAIVAVVALLLL [DAN4 C-terminal 12 aa] | 0.343 ± 0.0084 | 0.353 ± 0.0092
30 | TAPLIQRKNKKN [RPN8 C-terminal 12 aa] | 0.741 ± 0.037 | 0.355 ± 0.022
31 | TASGEDSHLLKQ [BRL1 C-terminal 12 aa] | 0.669 ± 0.029 | 0.689 ± 0.026
32 | TCISVFLEVHQV [YDL206W C-terminal 12 aa] | 0.479 ± 0.017 | 0.4633 ± 0.0046
33 | TDIENRNFRYIY [THI73 C-terminal 12 aa] | 0.6944 ± 0.0043 | 0.702 ± 0.022
34 | TDIEPSAKRQKK [RPF2 C-terminal 12 aa] | 0.776 ± 0.048 | 0.695 ± 0.087
35 | TDNGSVLPLNPS [BAS1 C-terminal 12 aa] | 0.696 ± 0.015 | 0.697 ± 0.028
36 | TDTEAEDDESPE [SEC63 C-terminal 12 aa] | 0.692 ± 0.025 | 0.633 ± 0.013
37 | TDYTRIIKMQSS [SWD1 C-terminal 12 aa] | 0.701 ± 0.013 | 0.251 ± 0.0049
38 | TFCRLCSHIQYF [YAL059C-A C-terminal 12 aa] | 0.7214 ± 0.006 | 0.694 ± 0.022
39 | TFKGLYAEANSI [YOR111W C-terminal 12 aa] | 0.739 ± 0.01 | 0.716 ± 0.031
40 | TFKPIYLWALDL [SPP382 C-terminal 12 aa] | 0.6938 ± 0.0043 | 0.6753 ± 0.0057
41 | TGLLRGSQKTQD [RPL2A C-terminal 12 aa] | 0.7017 ± 0.0061 | 0.672 ± 0.0086
42 | TISPYIRVCVST [YPR099C C-terminal 12 aa] | 0.3891 ± 0.0037 | 0.424 ± 0.018

Row | Sequence | protein stability index [1] | protein stability index (genetic background: wild type)
43 | TKCEEEIKNLSK [YME2 C-terminal 12 aa] | 0.698 ± 0.022 | 0.711 ± 0.036
44 | TKGGNAGTKAYN [RTC3 C-terminal 12 aa] | 0.679 ± 0.011 | 0.666 ± 0.041
45 | TKWWLHYYRKLR [SBE2 C-terminal 12 aa] | 0.7418 ± 0.005 | 0.701 ± 0.023
46 | TLSMYPRRRFYH [GPG1 C-terminal 12 aa] | 0.709 ± 0.011 | 0.608 ± 0.043
47 | TPEDADEEEDDE [RPL22B C-terminal 12 aa] | 0.6921 ± 0.0011 | 0.655 ± 0.014
48 | TPLLLGNKGKPQ [YBL094C C-terminal 12 aa] | 0.687 ± 0.019 | 0.696 ± 0.043
49 | TQEKLDSLLLMQ [LGE1 C-terminal 12 aa] | 0.702 ± 0.011 | 0.6982 ± 0.006
50 | TREPISYKLDIQ [ERO1 C-terminal 12 aa] | 0.678 ± 0.044 | 0.67 ± 0.024
51 | TRKWANAAKGMP [YLR407W C-terminal 12 aa] | 0.6889 ± 0.0067 | 0.727 ± 0.012
52 | TRMNVSHYYIIT [YOL166C C-terminal 12 aa] | 0.6573 ± 0.0038 | 0.641 ± 0.019
53 | TRRVAARKGKLS [UTR5 C-terminal 12 aa] | 0.686 ± 0.0091 | 0.32 ± 0.014
54 | TSAFNKLHIVEE [YAK1 C-terminal 12 aa] | 0.712 ± 0.024 | 0.67 ± 0.045
55 | TSDHLFVVFFFW [YDL034W C-terminal 12 aa] | 0.327 ± 0.019 | 0.319 ± 0.035
56 | TSHEAVAAKKLI [SHC1 C-terminal 12 aa] | 0.673 ± 0.018 | 0.249 ± 0.011
57 | TSILEDVDGDDE [YOL050C C-terminal 12 aa] | 0.706 ± 0.041 | 0.669 ± 0.026
58 | TSPRNICTSLCV [SAL1 C-terminal 12 aa] | 0.66358 ± 0.00023 | 0.655 ± 0.038
59 | TTDEEVKEKKKR [GLE2 C-terminal 12 aa] | 0.6893 ± 0.0049 | 0.692 ± 0.028
60 | TTNANVNNSSLS [FKH1 C-terminal 12 aa] | 0.715 ± 0.021 | 0.6623 ± 0.0022
61 | TVLKAAKKEGLN [MGR3 C-terminal 12 aa] | 0.672 ± 0.015 | 0.671 ± 0.044
62 | TVNYLHRLLETD [ISN1 C-terminal 12 aa] | 0.73 ± 0.009 | 0.721 ± 0.039
63 | TVPGDENKITKK [PDR12 C-terminal 12 aa] | 0.711 ± 0.017 | 0.654 ± 0.064

Row | Sequence | protein stability index [1] | protein stability index (genetic background: wild type)
64 | TVSDGGSIFECS [RAD28 C-terminal 12 aa] | 0.7127 ± 0.0051 | 0.708 ± 0.06
65 | TYRLLLRLHAQD [FAR7 C-terminal 12 aa] | 0.68 ± 0.035 | 0.641 ± 0.019
66 | TYSYTIDHPVLT [NUP100 C-terminal 12 aa] | 0.659 ± 0.021 | 0.659 ± 0.034
67 | VAASKASKKSKI [NSA1 C-terminal 12 aa] | 0.683 ± 0.035 | 0.677 ± 0.085
68 | VAFFKAVGATIM [YOR146W C-terminal 12 aa] | 0.625 ± 0.011 | 0.627 ± 0.054
69 | VAKAEKLAAEAN [ATP2 C-terminal 12 aa] | 0.684 ± 0.03 | 0.705 ± 0.022
70 | VDALQIQYNRRP [SCD5 C-terminal 12 aa] | 0.681 ± 0.013 | 0.692 ± 0.033
71 | VDESWLPETYKK [IRC22 C-terminal 12 aa] | 0.7425 ± 0.0014 | 0.711 ± 0.022
72 | VDQLFEKASVLY [RPN6 C-terminal 12 aa] | 0.68 ± 0.017 | 0.721 ± 0.03
73 | VFISTVLLAIVW [YAL065C C-terminal 12 aa] | 0.196 ± 0.015 | 0.192 ± 0.0067
74 | VFPDVLFTFLFS [YEL010W C-terminal 12 aa] | 0.70228 ± 0.00029 | 0.713 ± 0.027
75 | VFPGNYVQLNKN [RVS167 C-terminal 12 aa] | 0.6933 ± 0.0022 | 0.679 ± 0.027
76 | VGFAVMALMDEH [YKE4 C-terminal 12 aa] | 0.703 ± 0.052 | 0.7046 ± 0.0017
77 | VHDDSRCYTHFY [BNI4 C-terminal 12 aa] | 0.7313 ± 0.0033 | 0.726 ± 0.047
78 | VHKFGWSLSFSP [POR2 C-terminal 12 aa] | 0.701 ± 0.017 | 0.681 ± 0.038
79 | VKEIPEYSHLID [GCN5 C-terminal 12 aa] | 0.718 ± 0.0055 | 0.697 ± 0.0012
80 | VKIATSILGKKL [PGS1 C-terminal 12 aa] | 0.68478 ± 0.00021 | 0.687 ± 0.025
81 | VKQMRKKKDKGD [MSB3 C-terminal 12 aa] | 0.688 ± 0.0093 | 0.691 ± 0.042
82 | VKSSMGPAFRLY [RPL1A C-terminal 12 aa] | 0.6853 ± 0.0045 | 0.712 ± 0.046
